The values below come from patent US20150299322A1 (Dana-Farber, published 2015).

T1: mouse RGMb (mRGMb) expressed on transfected cells (mouse, UniProt Q7TQ33 49-415)
T1 construct: whole, on cells; Also used for mRGMb in cell lysates (Western blot); also called DRAGON; 300-mRGMb cells
T1 sequence (looked up): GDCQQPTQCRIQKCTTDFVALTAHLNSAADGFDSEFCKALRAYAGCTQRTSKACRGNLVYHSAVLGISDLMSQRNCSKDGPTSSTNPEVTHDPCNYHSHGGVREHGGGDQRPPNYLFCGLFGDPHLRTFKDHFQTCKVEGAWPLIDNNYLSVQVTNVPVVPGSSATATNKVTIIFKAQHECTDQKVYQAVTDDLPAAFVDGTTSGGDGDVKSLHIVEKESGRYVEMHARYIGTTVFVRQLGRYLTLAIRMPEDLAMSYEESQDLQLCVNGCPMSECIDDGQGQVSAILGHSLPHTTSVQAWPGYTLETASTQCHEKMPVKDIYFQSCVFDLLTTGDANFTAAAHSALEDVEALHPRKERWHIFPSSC

T2: mRGMb-Ig fusion protein (mRGMb-mIgG2a) (mouse, UniProt Q7TQ33 49-415, limits assumed)
T2 construct: extracellular domain; Purified from CHO cell culture supernatants
T2 sequence (looked up): T1 sequence (looked up)

T3: recombinant hRGMb-HIS (R&D) (human, UniProt Q6NW40 46-413)
T3 construct: Bought from R&D; not shown: HIS tag
T3 sequence: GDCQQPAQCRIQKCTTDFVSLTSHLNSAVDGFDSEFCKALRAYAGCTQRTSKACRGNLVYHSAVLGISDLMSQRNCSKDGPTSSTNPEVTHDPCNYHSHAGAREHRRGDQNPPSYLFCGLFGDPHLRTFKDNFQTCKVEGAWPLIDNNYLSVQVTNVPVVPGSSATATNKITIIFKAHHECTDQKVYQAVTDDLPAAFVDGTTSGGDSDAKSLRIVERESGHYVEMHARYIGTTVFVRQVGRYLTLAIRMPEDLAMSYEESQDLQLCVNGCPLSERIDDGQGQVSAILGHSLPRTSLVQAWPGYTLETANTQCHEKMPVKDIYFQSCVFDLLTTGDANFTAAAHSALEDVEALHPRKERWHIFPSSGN

T4: recombinant mRGMb-HIS (R&D) (mouse, UniProt Q7TQ33 49-415, limits assumed)
T4 construct: Bought from R&D; not shown: HIS tag
T4 sequence (looked up): T1 sequence (looked up)

T5: mPD-L2-Ig fusion protein (construct not told at the result) (mouse, UniProt Q9WUL5 20-221)
T5 construct: extracellular domain; not shown: Ig part: the methods name mPD-L2-hIgG1/IgA, mPD-L2-mIgG2a/IgA and mPD-L2-hIgG (R&D)
T5 sequence (looked up): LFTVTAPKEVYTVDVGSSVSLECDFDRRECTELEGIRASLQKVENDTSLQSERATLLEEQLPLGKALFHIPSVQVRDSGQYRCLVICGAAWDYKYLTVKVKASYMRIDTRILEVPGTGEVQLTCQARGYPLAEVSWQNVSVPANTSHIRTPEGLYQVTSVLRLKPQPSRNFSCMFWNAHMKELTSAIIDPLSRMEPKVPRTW

B1: mouse PD-L2 (mPD-L2) expressed on transfected 300 cells (ligand, UniProt Q9WUL5 20-247, looked up)
chain: LFTVTAPKEVYTVDVGSSVSLECDFDRRECTELEGIRASLQKVENDTSLQSERATLLEEQLPLGKALFHIPSVQVRDSGQYRCLVICGAAWDYKYLTVKVKASYMRIDTRILEVPGTGEVQLTCQARGYPLAEVSWQNVSVPANTSHIRTPEGLYQVTSVLRLKPQPSRNFSCMFWNAHMKELTSAIIDPLSRMEPKVPRTWPLHVFIPACTIALIFLAIVIIQRKRI
notes: whole, on cells; also called 300-mPD-L2 cells; mPD-L2 transfected cells
B2: hPD-L2-mIgG2a fusion protein (Fc fusion)
chain: LFTVTVPKELYIIEHGSNVTLECNFDTGSHVNLGAITASLQKVENDTSPHRERATLLEEQLPLGKASFHIPQVQVRDEGQYQCIIIYGVAWDYKYLTLKVKASYRKINTHILKVPETDEVELTCQATGYPLAEVSWPNVSVPANTSHSRTPEGLYQVTSVLRLKPPPGRNFSCVFWNTHVRELTLASIDLQSQMEPRTHPT
notes: not shown: mouse IgG2a part
B3: recombinant mouse BMP-4 (R&D) (ligand, UniProt P21275 293-408, looked up)
chain: SPKHHPQRSRKKNKNCRRHSLYVDFSDVGWNDWIVAPPGYQAFYCHGDCPFPLADHLNSTNHAIVQTLVNSVNSSIPKACCVPTELSAISMLYLDEYDKVVLKNYQEMVVEGCGCR
notes: Coated on ELISA plates at 1 ug/ml; also called mBMP-4; BMP-2/4
B4: mouse PD-1 (mPD-1) expressed on transfected 300 cells (receptor, UniProt Q02242 25-288, looked up)
chain: LEVPNGPWRSLTFYPAWLTVSEGANATFTCSLSNWSEDLMLNWNRLSPSNQTEKQAAFCNGLSQPVQDARFQIIQLPNRHDFHMNILDTRRNDSGIYLCGAISLHPKAKIEESPGAELVVTERILETSTRYPSPSPKPEGRFQGMVIGIMSALVGIPVLLLLAWALAVFCSTSMSEARGAGSKDDTLKEEPSAAPVPSVAYEELDFQGREKTPELPTACVHTEYATIVFTEGLGASAMGRRGSADGLQGPRPPRHEDGHCSWPL
notes: whole, on cells; also called 300-mPD-1 cells; mPD-1 cells
B5: recombinant mouse BMP-2 (GIBCO) (ligand, UniProt P21274 281-394, looked up)
chain: QAKHKQRKRLKSSCKRHPLYVDFSDVGWNDWIVAPPGYHAFYCHGECPFPLADHLNSTNHAIVQTLVNSVNSKIPKACCVPTELSAISMLYLDENEKVVLKNYQDMVVEGCGCR
notes: Coated on ELISA plates at 1 ug/ml; also called mBMP-2; BMP-2/4

Assay [1] concerns the target B4. In words: cell conjugation assay, flow cytometry. As to the method:
(§1) An assay for receptor-ligand binding was developed based on cell to cell binding as determined by flow cytometry. One transfected cell type was labelled with the red dye PKH26 (Sigma) and the other transfected cell with the green dye PKH67 (Sigma) according to the manufacturer's instructions. Red dye-labelled and green dye-labelled cells ([…] each cell type) were incubated in 200 μl of HBSS buffer without calcium and magnesium (GIBCO) supplemented with 10% heat-inactivated FBS (Invitrogen), 15 μg/ml gentamicin (Invitrogen) and 1% HEPES (Invitrogen) in a round bottom 96-well plate for 45 min at 37° C. When the cell conjugation assay was used to test the blocking capacity of antibodies, one transfected cell type was pre-incubated 30 min at RT with antibodies before adding the other type of transfected cells. Conjugate formation was analyzed immediately by flow cytometry using the PE channel for the red dye and the FITC channel for the green dye. The automated plate harvester of the FACSCanto (BD Biosciences) was used for uniformity of cell processing. The instrument settings were as follows, throughput mode: standard, loader settings: sample flow rate at 0.5 μl/second, sample volume and mixing volume at 100 μl, mixing speed at 50 μl/second, number of mixes at 2, and wash volume at 400 μl.
(§2) To test the RGMb:PD-L2 interaction under more physiologic conditions, a cell conjugation assay was used where one transfected cell type was labeled with a red dye and the other transfected cell type with a green dye. The binding of the two cell types was assessed by flow cytometry and indicated by double positive events (yellow dots). […] FIGS. 1L, 1N, 1P, and 1R show only the dot plots without corresponding FSC-SSC plots. As expected, mRGMb cells bound to mPD-L2 cells (FIG. 1K), but not mPD-L1 cells (FIG. 1L). As positive controls, mPD-1 cells bound to both mPD-L2 and mPD-L1 cells (FIGS. 1M-1N). Negative control binding assays had very few conjugates (<0.3%) (FIGS. 1O-1R).

Assay [2] deals with T1, mouse RGMb (mRGMb) expressed on …. In words: cell conjugation assay, flow cytometry. As to the method: as §1, §2
(In general: In flow cytometry, cells or beads pass a laser one at a time.)

For assay [3], the target named is T2, mRGMb-Ig fusion protein (mRGMb-mIgG2a). In words: flow cytometry on mPD-L2 transfected 300 cells.
The target in assay [4] is T3, recombinant hRGMb-HIS (R&D). Description: ELISA, coated hRGMb-HIS, PD-L2-Ig in solution. As to the method: (§3) To examine RGMa/RGMb/RGMc and PD-L2 interaction, 96-well ELISA plates were coated with 2 or 5 μg/ml of recombinant mRGMa-HIS, mRGMb-HIS, mRGMc-HIS, or hRGMb-HIS (R&D). Then, serial dilutions of mPD-L2-hIgG1/IgA, mPD-L2-mIgG2a/IgA, hPD-L2-mIgG2a or control-Ig fusion proteins were added and incubated for 1h at 37° C. Fab₂ goat anti-hIgG-HRP (Jackson ImmunoResearch Laboratories) or rat anti-mIgG2a-HRP (BD Biosciences) at 1:1000 or 1:10000 were used for detection.
For orientation: ELISA stands for enzyme-linked immunosorbent assay.

In assay [5] the target is T4, recombinant mRGMb-HIS (R&D). Description: ELISA, coated mRGMb-HIS, PD-L2-Ig in solution. Here is the method:
as §3

For assay [6] the target is unchanged. In words: ELISA, coated BMP-4, mRGMb-HIS bridging PD-L2-Ig. As to the method:
(§4) To determine if RGMb binds PD-L2 and BMP-2/4 simultaneously, 96-well ELISA plates were coated with BMP-2/4 as above. mPD-L2-hIgG1/IgA, mPD-L2-hIgG (R&D), mPD-L1-hIgG (R&D) or control-Ig fusion proteins at 10 μg/ml were preincubated with 10 μg/ml mRGMb-HIS (R&D) or buffer alone for 15 min. at room temperature (RT), then added to the plates and incubated for 1h at 37° C. Alternatively, 10 μg/ml mRGMb-HIS (R&D) or buffer alone was added first to the plates and incubated for 1h at 37° C. After wash, mPD-L2-Ig or control-Ig fusion proteins were added and incubated for 1h at 37° C. Fab₂ goat anti-hIgG-HRP (Jackson ImmunoResearch Laboratories) at 1:10000 was used for detection.
(§5) To test if RGMb can bind both PD-L2 and BMP at the same time, an ELISA was performed to analyze the binding capacity of PD-L2-Ig fusion protein to immobilized BMP-2/4 in the presence or absence of RGMb. PD-L2 could not directly bind to BMP-2/4, but in the presence of RGMb could form a complex with BMP when RGMb and PD-L2-Ig were added simultaneously (FIG. 4A-4B) or sequentially to BMP-2/4.

The target of assay [7] is T5, mPD-L2-Ig fusion protein (construct not …). Description: ELISA, coated BMP-4, PD-L2-Ig added without RGMb. As to the method:
as §4, §5

The target of assay [8] is T6, mouse PD-L1 (mPD-L1) expressed on transfected 300 cells (mouse, UniProt Q9EP73 19-290).
T6 construct: whole, on cells; also called 300-mPDL 1; mPD-L1 cells
In words: cell conjugation assay, flow cytometry. Here is the method:
as §1, §2

For assay [9], the target named is T4, recombinant mRGMb-HIS (R&D). In words: ELISA, coated BMP-2, mRGMb-HIS bridging PD-L2-Ig. Here is the method:
as §4, §5

For assay [10], the target named is T5, mPD-L2-Ig fusion protein (construct not …). In words: ELISA, coated BMP-2, PD-L2-Ig added without RGMb. As to the method: as §4, §5

T6 sequence (Q9EP73 19-290): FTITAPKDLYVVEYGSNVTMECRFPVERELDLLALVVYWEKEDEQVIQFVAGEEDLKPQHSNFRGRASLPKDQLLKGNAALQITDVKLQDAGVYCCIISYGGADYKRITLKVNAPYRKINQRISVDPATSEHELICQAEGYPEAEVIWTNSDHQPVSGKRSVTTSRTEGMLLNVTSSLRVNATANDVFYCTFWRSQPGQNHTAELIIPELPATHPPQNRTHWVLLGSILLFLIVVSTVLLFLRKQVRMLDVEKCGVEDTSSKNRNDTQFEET

With B1, the binding result in assay [1], in assay [2] and in [3] was “binds” in each case.

Regarding B2, the binding result in assay [4] and in assay [5] was “binds” each time.

Consider B3, for which the binding result in [6] is “binds”; in [7] it was “no binding (tested: 10 ug/ml)”.

In the case of B4, in assay [8], the binding result is listed as “binds”.

As for B5, the binding result in [9] is reported as “binds”; in [10] it was “no binding (tested: 10 ug/ml)”.
